Assay results published in patent US20240173421A1.
Like-named read-outs stand apart in the source and are kept apart here. One block for each substance: values may come before it.

Tests used:
[1] = biological target: Human F158 FcγRIIIa (Example 8) (human) (UniProt P08637); assay: BLI, receptor on SAX sensor
[2] = biological target: Human V158 FcγRIIIa (Example 8) (human) (UniProt P08637); assay: BLI, receptor on SAX sensor
[3] = biological target: Human FcγRI (Example 8) (human) (UniProt P12314); assay: BLI, receptor on SAX sensor
[4] = biological target: Human H131 FcγRIIa (Example 8) (human) (UniProt P12318); assay: BLI, receptor on SAX sensor
[5] = biological target: CD16a (FcγRIIIa) on Jurkat NFAT reporter cells (UniProt P08637); assay: cell-based or functional assay
Sequence of CD16a (FcγRIIIa) on Jurkat NFAT reporter cells (P08637 17-254 limits assumed): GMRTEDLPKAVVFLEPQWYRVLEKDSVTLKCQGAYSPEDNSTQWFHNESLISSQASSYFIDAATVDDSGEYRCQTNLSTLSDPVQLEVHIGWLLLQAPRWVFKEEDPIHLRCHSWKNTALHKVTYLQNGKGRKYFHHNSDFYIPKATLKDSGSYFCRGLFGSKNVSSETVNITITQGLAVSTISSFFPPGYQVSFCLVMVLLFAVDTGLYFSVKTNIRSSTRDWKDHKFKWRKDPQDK

[6] = biological target: Human F158 FcγRIIIa (Example 8) (human) (UniProt P08637); assay: BLI; ratio to KD of the unconjugated antibody
[7] = biological target: Human V158 FcγRIIIa (Example 8) (human) (UniProt P08637); assay: BLI; ratio to KD of the unconjugated antibody
[8] = biological target: Human FcγRI (Example 8) (human) (UniProt P12314); assay: BLI; ratio to KD of the unconjugated antibody
[9] = biological target: CD16a (FcγRIIIa) on Jurkat NFAT reporter cells (UniProt P08637)
[10] = biological target: CD16a (FcγRIIIa) on Jurkat NFAT reporter cells (UniProt P08637); remark: listed apart in the source

Substance: Anti-HER2 S239D A330L I332E-mcPEG12(10) (antibody)
KD Fold change [6]: 40 fold
KD Fold change [7]: 78.4 fold
KD Fold change [8]: 10 fold
Kd [1]: 3800 nM
koff [1]: 0.077 s⁻¹
kon [1]: 20000 M⁻¹ s⁻¹
Kd [2]: 2900 nM
koff [2]: 0.085 s⁻¹
kon [2]: 29000 M⁻¹ s⁻¹
Kd [3]: 1.2 nM
koff [3]: 0.00011 s⁻¹
kon [3]: 95000 M⁻¹ s⁻¹
CD16a NFAT EC50 [5]: 83.5 ng/mL

Substance: Anti-HER2 S239D I332E (antibody)
Kd [3]: 0.1 nM
CD16a NFAT EC50 [5]: 1.5 ng/mL

Substance: Anti-HER2 S239D I332E-mcPEG12(10) (antibody)
CD16a NFAT EC50 [5]: 71.2 ng/mL

Substance: obinituzumab-WT (antibody)
EC50 (read off the curve), FcγRIIIa NFAT reporter assay [9]: 7 ng/mL

Substance: rituximab-AF (antibody)
EC50 (read off the curve), FcγRIIIa NFAT reporter assay [10]: 1 ng/mL

Substance: rituximab-WT (antibody)
EC50 (read off the curve), FcγRIIIa NFAT reporter assay [10]: 8 ng/mL

Next, values leading:

Kd [1]: 95 nM
koff [1]: 0.049 s⁻¹
kon [1]: 520000 M⁻¹ s⁻¹
Kd [2]: 37 nM
koff [2]: 0.028 s⁻¹
kon [2]: 750000 M⁻¹ s⁻¹
Kd [3]: 0.12 nM
koff [3]: 6.8e-05 s⁻¹
kon [3]: 590000 M⁻¹ s⁻¹
Kd [4]: 2100 nM
koff [4]: 0.38 s⁻¹
kon [4]: 190000 M⁻¹ s⁻¹
CD16a NFAT EC50 [5]: 0.7 ng/mL
Substance: Anti-HER2 S239D A330L I332E (antibody)

Kd [3]: 1 nM
Substance: Anti-HER2 S239D I332E-mcPEG12(8) (antibody)

Kd [3]: 9 nM
CD16a NFAT EC50 [5]: > 2000 ng/mL
Substance: Anti-HER2-mcPEG12(8) (antibody)

EC50 (read off the curve), FcγRIIIa NFAT reporter assay [9]: 0.7 ng/mL
Substance: obinituzumab-AF (antibody)
